Here are results for twelve substances from publication PMC7374751.

Sequence of MMP-1 (P03956 100-469): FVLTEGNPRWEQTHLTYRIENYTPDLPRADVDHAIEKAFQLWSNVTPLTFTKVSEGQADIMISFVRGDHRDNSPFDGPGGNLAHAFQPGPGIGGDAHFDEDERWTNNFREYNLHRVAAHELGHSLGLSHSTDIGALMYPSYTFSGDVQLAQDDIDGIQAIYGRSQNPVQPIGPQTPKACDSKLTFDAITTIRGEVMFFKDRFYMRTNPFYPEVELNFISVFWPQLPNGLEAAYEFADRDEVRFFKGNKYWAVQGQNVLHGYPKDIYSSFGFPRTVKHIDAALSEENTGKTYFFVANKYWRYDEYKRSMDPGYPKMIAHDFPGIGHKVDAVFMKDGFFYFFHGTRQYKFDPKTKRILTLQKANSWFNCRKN
Sequence of LRP-1 (Homo sapiens) (Q07954 20-4544): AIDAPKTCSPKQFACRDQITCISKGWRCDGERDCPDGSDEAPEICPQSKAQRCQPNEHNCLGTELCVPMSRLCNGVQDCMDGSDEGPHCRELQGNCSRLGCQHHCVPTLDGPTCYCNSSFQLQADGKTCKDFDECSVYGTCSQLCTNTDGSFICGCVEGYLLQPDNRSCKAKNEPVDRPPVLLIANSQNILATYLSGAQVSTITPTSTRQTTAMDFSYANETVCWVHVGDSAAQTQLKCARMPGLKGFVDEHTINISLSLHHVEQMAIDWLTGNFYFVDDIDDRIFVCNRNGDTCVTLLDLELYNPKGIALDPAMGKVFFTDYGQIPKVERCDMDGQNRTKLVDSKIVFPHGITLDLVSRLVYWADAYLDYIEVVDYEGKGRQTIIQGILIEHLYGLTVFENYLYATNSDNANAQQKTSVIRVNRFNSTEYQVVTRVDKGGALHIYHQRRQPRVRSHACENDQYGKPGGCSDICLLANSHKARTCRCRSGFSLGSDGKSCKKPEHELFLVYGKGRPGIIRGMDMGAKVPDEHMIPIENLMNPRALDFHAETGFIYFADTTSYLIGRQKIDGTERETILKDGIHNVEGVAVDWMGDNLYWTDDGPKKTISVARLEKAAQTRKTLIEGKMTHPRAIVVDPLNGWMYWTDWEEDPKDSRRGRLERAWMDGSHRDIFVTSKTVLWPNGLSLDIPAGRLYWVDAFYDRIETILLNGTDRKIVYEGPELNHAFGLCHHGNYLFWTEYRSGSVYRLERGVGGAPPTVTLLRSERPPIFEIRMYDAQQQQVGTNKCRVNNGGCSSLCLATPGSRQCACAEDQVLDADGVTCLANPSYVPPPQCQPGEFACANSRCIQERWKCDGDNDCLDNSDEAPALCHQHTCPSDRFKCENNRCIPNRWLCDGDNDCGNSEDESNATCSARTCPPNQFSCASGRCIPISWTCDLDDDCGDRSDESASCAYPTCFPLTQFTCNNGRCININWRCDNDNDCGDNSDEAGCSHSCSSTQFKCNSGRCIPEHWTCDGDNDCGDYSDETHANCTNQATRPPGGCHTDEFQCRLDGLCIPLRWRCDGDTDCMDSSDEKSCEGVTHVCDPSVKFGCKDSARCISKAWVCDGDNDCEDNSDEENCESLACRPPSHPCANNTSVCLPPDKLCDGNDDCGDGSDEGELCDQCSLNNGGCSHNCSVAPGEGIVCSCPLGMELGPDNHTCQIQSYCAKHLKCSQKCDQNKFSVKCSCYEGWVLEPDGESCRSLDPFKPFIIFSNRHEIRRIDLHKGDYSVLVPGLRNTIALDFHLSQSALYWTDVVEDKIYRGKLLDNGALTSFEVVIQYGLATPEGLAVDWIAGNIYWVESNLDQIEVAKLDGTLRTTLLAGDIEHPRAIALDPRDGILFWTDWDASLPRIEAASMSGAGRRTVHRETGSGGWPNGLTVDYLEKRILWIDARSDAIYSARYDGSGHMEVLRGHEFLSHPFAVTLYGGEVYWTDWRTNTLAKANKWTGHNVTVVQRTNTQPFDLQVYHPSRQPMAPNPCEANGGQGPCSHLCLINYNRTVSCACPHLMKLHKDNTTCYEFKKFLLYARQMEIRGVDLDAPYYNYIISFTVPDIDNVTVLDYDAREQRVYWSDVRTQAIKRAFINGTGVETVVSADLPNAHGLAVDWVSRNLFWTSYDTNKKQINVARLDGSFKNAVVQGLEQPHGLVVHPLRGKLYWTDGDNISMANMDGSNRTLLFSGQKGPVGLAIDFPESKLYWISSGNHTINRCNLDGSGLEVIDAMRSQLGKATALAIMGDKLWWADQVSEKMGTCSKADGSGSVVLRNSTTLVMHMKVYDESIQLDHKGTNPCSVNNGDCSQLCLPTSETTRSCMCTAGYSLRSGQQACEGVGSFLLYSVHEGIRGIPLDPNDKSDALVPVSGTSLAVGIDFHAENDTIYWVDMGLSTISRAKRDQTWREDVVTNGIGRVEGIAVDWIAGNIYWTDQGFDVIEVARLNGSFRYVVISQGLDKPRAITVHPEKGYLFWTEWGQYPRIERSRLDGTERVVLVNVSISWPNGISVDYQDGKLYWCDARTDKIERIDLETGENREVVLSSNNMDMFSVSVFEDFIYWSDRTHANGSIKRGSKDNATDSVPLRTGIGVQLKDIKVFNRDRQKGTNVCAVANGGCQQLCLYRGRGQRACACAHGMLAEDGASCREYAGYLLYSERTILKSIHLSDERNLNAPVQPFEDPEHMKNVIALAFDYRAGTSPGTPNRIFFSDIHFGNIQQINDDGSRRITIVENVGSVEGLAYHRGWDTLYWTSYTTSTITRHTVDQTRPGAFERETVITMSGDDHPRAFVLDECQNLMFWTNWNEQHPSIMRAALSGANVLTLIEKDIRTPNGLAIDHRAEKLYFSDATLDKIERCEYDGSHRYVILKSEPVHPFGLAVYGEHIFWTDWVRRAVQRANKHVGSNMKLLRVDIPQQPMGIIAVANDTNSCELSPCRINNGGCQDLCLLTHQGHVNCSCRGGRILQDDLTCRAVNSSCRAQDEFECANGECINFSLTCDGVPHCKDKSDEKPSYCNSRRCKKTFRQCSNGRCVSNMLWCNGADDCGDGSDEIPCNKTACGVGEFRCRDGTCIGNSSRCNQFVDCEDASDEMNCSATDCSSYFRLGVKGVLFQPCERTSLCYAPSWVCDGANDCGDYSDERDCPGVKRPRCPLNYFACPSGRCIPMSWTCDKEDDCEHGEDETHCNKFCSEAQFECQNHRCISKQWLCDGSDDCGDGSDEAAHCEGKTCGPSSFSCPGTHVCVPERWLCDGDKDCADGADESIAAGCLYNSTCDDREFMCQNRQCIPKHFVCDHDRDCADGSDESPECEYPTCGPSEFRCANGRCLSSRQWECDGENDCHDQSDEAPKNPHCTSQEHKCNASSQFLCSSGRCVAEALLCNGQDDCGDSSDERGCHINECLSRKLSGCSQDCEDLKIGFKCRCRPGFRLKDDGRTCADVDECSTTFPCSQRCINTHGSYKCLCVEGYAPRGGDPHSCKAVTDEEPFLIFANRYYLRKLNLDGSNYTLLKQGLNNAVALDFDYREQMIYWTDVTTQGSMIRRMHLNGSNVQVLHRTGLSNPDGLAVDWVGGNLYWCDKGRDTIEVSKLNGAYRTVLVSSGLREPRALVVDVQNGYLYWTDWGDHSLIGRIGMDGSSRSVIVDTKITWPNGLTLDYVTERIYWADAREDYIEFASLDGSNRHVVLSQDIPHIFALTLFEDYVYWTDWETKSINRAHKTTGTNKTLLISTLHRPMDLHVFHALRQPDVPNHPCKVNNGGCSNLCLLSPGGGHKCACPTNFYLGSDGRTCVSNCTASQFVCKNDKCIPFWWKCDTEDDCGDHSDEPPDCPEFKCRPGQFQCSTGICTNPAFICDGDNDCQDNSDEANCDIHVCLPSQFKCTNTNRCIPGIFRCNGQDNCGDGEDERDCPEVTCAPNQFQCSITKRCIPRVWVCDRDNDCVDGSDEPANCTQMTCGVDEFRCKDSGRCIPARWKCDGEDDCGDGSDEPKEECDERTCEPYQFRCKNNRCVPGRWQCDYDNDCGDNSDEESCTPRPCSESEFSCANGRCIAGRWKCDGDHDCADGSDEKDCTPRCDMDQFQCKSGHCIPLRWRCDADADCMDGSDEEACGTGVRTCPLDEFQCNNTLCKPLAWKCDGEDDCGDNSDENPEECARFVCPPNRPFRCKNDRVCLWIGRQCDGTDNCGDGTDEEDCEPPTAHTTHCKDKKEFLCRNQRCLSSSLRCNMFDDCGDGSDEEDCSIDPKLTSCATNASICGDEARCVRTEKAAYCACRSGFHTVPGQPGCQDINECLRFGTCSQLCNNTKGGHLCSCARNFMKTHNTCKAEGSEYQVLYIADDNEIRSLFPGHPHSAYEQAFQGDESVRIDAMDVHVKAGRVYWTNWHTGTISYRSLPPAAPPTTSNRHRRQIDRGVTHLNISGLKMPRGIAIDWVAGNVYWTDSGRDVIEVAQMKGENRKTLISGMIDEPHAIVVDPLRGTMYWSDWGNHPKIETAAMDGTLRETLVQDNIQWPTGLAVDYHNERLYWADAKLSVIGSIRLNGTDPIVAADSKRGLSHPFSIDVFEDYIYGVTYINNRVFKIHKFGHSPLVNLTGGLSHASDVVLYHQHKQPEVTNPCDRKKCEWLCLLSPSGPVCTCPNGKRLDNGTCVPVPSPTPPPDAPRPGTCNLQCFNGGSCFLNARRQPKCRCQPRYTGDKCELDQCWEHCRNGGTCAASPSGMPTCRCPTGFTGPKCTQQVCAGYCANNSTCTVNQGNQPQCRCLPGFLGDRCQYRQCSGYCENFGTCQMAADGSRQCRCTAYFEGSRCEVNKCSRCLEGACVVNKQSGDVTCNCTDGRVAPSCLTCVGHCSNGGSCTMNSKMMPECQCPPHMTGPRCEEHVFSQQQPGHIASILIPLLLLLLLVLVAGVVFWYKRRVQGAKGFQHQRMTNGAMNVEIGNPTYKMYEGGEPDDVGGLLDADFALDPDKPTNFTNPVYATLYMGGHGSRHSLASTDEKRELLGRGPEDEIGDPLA

The first assay addresses low-density lipoprotein receptor-related protein 1 (LRP-1) (UniProt Q07954).
Experiment: not given
Details: not given
As for full length MMP-1 (enzyme), the decrease in clearance of 10 nM intact [35S]MMP-1 from the conditioned medium of HTB94 cells, 0-24 h came out at 20%.

In another assay the target is TIMP-2 (Homo sapiens) (UniProt P16035).
Experiment: not given
The conditions noted are these: cited from earlier work.
As for MMP-1 (from UniProt P03956), the Ki is 1.03 nM.

For a further assay, the target named is TIMP-3 (Homo sapiens) (UniProt P35625).
Experiment: not given
The conditions noted are these: cited from earlier work.
As to MMP-1 (from UniProt P03956), the Ki was 1.1 nM.

For the next assay, the target named is TIMP-1 (Homo sapiens) (UniProt P01033).
Experiment: not given
As to conditions: cited from earlier work.
Turning to MMP-1 (from UniProt P03956), the Ki was 0.38 nM.

Another assay concerns the target LRP-1 (Homo sapiens) (UniProt Q07954).
Experiment: not given
As to conditions: cited from earlier work.
For the substance RAP (from UniProt P30533), the dissociation constant Kd was 1.4 nM.

Another assay deals with low-density lipoprotein receptor-related protein 1 (LRP-1) (UniProt Q07954). Kind of assay: SPR; BIAcore T200; LRP-1 immobilised on a CM5 chip by amine coupling (3000 RU); 25 °C; 150 mM NaCl, 10 mM CaCl2, 50 mM Tris-HCl, 0.01% Tween-20, pH 7.5; 30 μl/min; ligands or pre-formed complexes injected; one-site binding model; triplicate.
Sequence of low-density lipoprotein receptor-related protein 1 (LRP-1) (Q07954 20-4544): as above
Details: not given
In general terms: In SPR one partner is held on a chip, and binding of the other changes the refractive index at the surface.
Take “MMP-1/TIMP-2 complex (from UniProt P16035 27-220)”: the Kd stood at 7.8 nM, the koff worked out at 0.00327 s⁻¹ and the kon worked out at 419000 M⁻¹ s⁻¹.

“MMP-13 (E204A), catalytically inactive mutant (enzyme)” gave a Kd of 25.6 nM, a koff of 0.00598 s⁻¹ and a kon of 234000 M⁻¹ s⁻¹.

MMP-1/N-TIMP-3 complex registered a Kd of 4.3 nM, a koff of 0.00246 s⁻¹ and a kon of 573000 M⁻¹ s⁻¹.

Turning to “MMP-13/TIMP-1 complex (from UniProt P45452 20-471; P01033 24-207)”, the equilibrium dissociation constant (Kd) worked out at 10.6 nM, the off-rate (koff) is 0.00345 s⁻¹ and the on-rate constant (kon) is 326000 M⁻¹ s⁻¹.

In the case of “MMP-13/TIMP-2 complex (from UniProt P45452 20-471; P16035 27-220)”, the Kd is 5.59 nM, the koff worked out at 0.00241 s⁻¹ and the kon turned out to be 431000 M⁻¹ s⁻¹.

For the substance “MMP-1/TIMP-3 complex (from UniProt P35625 24-211)”, the Kd came to 4.96 nM, the koff is 0.00228 s⁻¹ and the kon is 461000 M⁻¹ s⁻¹.

In turn, “MMP-1/TIMP-1 complex (from UniProt P01033 24-207)” showed an equilibrium dissociation constant (Kd) of 16.5 nM, a koff of 0.0064 s⁻¹ and a kon of 390000 M⁻¹ s⁻¹.

“MMP-1 (E200A), catalytically inactive form of MMP-1 (enzyme)” displayed a Kd of 34.6 nM, a koff of 0.00468 s⁻¹ and an on-rate constant (kon) of 136000 M⁻¹ s⁻¹.

Regarding “MMP-13/TIMP-3 complex (from UniProt P45452 20-471; P35625 24-211)”, the Kd is 3.35 nM, the koff turned out to be 0.00295 s⁻¹ and the kon was 882000 M⁻¹ s⁻¹.

In general, Ki refers to a measure of affinity in units of concentration, obtained from inhibition or displacement. One may read the Kd as the concentration at which binding is half-saturated. By koff is commonly meant the rate constant with which the complex falls apart. A lower koff goes with a long-lived complex. The kon is a measure of how fast the partners come together. The low end stands for slower complex formation, the high end for faster complex formation.
